Reference: patent publication US20090028788A1 (WASHINGTON UNIVERSITY IN ST LOUIS, published 2009)
Bridges are numbered along the chain shown (N, C = ends). Primed or numbered codes have the meaning given here. Where no end group is shown, it is not given here. [ ]: non-standard residue; d: D form. The star is where a group is joined. Cypate = CC1(C)C(/C=C/C=C/C=C/C=C2/N(CCC(=O)*)c3ccc4ccccc4c3C2(C)C)=[N+](CCC(=O)O)c2ccc3ccccc3c21; DOTA = O=C(O)CN1CCN(CC(=O)O)CCN(CC(=O)*)CCN(CC(=O)O)CC1; DTPA = O=C(O)CN(CCN(CC(=O)O)CC(=O)O)CCN(CC(=O)O)CC(=O)*; Cypate′ = NIR carbocyanine dye; Ahx = NCCCCCC(=O)O; βAla = NCCC(=O)O

Biological target: T1, purified human αvβ3 integrin protein (human, UniProt P06756 31-1048; P05106 27-788)
T1 construct: Bought heterodimer; also called ABI; purified αvβ3 integrin
T1 sequence (P06756 31-1048, form in doubt, chain 1 of 2): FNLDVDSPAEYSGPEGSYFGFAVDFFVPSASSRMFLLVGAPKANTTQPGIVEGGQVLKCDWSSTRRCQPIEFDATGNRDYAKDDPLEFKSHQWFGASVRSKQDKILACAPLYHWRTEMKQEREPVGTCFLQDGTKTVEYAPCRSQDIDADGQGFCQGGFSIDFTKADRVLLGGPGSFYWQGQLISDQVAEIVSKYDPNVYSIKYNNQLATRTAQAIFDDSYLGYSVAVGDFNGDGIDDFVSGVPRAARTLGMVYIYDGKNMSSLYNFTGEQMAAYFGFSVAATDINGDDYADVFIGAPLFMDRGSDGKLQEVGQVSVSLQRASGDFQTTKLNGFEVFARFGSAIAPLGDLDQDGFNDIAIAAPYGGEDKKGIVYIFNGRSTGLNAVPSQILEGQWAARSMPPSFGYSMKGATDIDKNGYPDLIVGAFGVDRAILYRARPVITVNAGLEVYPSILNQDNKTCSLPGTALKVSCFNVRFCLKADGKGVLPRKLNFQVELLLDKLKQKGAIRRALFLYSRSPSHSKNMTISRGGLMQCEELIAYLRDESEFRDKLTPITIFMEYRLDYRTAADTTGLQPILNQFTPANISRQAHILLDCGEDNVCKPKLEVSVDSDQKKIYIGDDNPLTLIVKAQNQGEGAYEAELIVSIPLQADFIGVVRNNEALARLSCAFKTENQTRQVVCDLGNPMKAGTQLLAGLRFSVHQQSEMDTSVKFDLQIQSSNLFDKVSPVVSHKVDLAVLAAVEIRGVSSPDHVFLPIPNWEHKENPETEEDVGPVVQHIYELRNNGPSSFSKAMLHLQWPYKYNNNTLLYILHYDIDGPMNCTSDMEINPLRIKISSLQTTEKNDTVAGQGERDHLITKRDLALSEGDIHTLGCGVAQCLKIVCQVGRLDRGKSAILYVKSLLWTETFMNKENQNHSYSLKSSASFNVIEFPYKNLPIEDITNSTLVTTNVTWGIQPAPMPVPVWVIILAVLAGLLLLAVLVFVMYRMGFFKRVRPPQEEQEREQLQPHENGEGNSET
T1 sequence (P05106 27-788, form in doubt, chain 2 of 2): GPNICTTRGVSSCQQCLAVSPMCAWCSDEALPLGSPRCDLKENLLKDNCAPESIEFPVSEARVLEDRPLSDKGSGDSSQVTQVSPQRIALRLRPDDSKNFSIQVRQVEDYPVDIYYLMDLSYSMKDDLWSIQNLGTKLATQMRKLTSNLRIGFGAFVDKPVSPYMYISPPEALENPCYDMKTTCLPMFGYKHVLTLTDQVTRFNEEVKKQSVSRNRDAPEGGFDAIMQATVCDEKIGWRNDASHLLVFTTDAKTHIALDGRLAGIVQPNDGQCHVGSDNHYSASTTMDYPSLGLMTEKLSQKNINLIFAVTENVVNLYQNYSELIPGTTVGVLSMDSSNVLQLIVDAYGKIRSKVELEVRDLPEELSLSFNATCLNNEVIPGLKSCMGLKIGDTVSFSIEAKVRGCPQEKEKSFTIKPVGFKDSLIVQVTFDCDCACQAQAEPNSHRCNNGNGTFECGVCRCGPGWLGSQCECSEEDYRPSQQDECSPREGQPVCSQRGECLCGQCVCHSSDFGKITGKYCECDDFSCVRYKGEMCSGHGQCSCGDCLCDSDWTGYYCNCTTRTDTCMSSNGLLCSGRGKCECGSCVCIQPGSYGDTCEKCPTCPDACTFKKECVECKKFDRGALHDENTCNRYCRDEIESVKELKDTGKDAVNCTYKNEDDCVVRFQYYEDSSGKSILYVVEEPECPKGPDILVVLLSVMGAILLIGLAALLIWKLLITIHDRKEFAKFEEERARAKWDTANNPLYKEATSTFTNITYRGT
Test: competition with 125I-echistatin on purified human αvβ3 integrin, filter plate
Description: (§1) The binding affinities were measured based on the competitive binding between purified αᵥβ₃ integrin (ABI) and peptide ligands.
(§2) Receptor binding assays were performed by using purified human αᵥβ₃ integrin protein from Chemicon International, Inc. (Temecula, Calif.). Assays were carried out using the Millipore Duropore membrane 96-well plates and the Millipore MultiScreen system (Bedford, Mass.). […] The concentration range of ligand was between 0.01 μM and 100 μM. The mixtures were incubated for 2 h at room temperature, the ABI was then filtered by centrifugation at 1500 g and washed three times with 0.20 mL of ice-cold binding buffer. The filters containing radioactivity bound ABI were removed using a punch apparatus and counted using a Packard Cobra II Auto-gamma counter (Meriden, Conn.). […] The 50% inhibitory concentrations (IC₅₀) were calculated by nonlinear regression analysis by use of the GraphPad Prism 4 computer fitting program (GraphPad Software, Inc., San Diego, Calif.).

Binder | IC50 [µM]
CRGDC (HELM PEPTIDE1{[CC1(C)C(/C=C/C=C/C=C/C=C2/N(CCC(=O)[*:2])c3ccc4ccccc4c3C2(C)C)=[N+](CCC(=O)O)c2ccc3ccccc3c21].C.R.G.D.C.[am]}$PEPTIDE1,PEPTIDE1,2:R3-6:R3$$$V2.0; SMILES CC1(C)C(/C=C/C=C/C=C/C=C2/N(CCC(=O)N[C@H]3CSSC[C@@H](C(N)=O)NC(=O)[C@H](CC(=O)O)NC(=O)CNC(=O)[C@H](CCCNC(=N)N)NC3=O)c3ccc4ccccc4c3C2(C)C)=[N+](CCC(=O)O)c2ccc3ccccc3c21, also called Cypate-cyclo(CRGDC)-NH2) [Cypate-Cyclo(Cys-Arg-Gly-Asp-Cys)-NH2] | 4.6
CRGDSC (HELM PEPTIDE1{[CC1(C)C(/C=C/C=C/C=C/C=C2/N(CCC(=O)[*:2])c3ccc4ccccc4c3C2(C)C)=[N+](CCC(=O)O)c2ccc3ccccc3c21].C.R.G.D.S.C.[am]}$PEPTIDE1,PEPTIDE1,2:R3-7:R3$$$V2.0; SMILES CC1(C)C(/C=C/C=C/C=C/C=C2/N(CCC(=O)N[C@H]3CSSC[C@@H](C(N)=O)NC(=O)[C@H](CO)NC(=O)[C@H](CC(=O)O)NC(=O)CNC(=O)[C@H](CCCNC(=N)N)NC3=O)c3ccc4ccccc4c3C2(C)C)=[N+](CCC(=O)O)c2ccc3ccccc3c21, also called Cypate-[Cyclo-(Cys-Arg-Gly-Asp-Ser-Cys)]1) [Cypate-cyclo(CRGDSC)-NH2] | 1.14

Biological target: T1, purified human αvβ3 integrin protein
Test: as above
Remark: another data set of the same source
Description: as §1, §2

Binder | IC50 [µM]
VRGDXCYXKTCT (HELM PEPTIDE1{V.R.G.D.[dF].C.Y.[dW].K.T.C.T.[am]}$PEPTIDE1,PEPTIDE1,6:R3-11:R3$$$V2.0; SMILES CC(C)[C@H](N)C(=O)N[C@@H](CCCNC(=N)N)C(=O)NCC(=O)N[C@@H](CC(=O)O)C(=O)N[C@H](Cc1ccccc1)C(=O)N[C@H]1CSSC[C@@H](C(=O)N[C@H](C(N)=O)[C@@H](C)O)NC(=O)[C@H]([C@@H](C)O)NC(=O)[C@H](CCCCN)NC(=O)[C@@H](Cc2c[nH]c3ccccc23)NC(=O)[C@H](Cc2ccc(O)cc2)NC1=O) [H-Val-Arg-Gly-Asp-DPhe-Cyclo(Cys-Tyr-DTrp-Lys-Thr-Cys)-Thr-NH2] | 1.68
RGD[dF]D[Ahx]K-OH (lactam N-5; also: cyclo Arg1-Asp5: which Asp5 carboxyl (side chain or α) closes ring not given here) [Cyclo(Arg-Gly-Asp-DPhe-Asp)-EAhx-Lys-OH] | 1.94
{Cypate′}-KRGD[dF][Ahx]-NH2 [Cypate-Lys-Arg-Gly-Asp-DPhe-EAhx-NH2] | 3.02
RGD[dF]DK-NH2 (lactam N-5; also: cyclo Arg1-Asp5: which Asp5 carboxyl (side chain or α) closes ring not given here) [Cyclo(Arg-Gly-Asp-DPhe-Asp)-Lys-NH2] | 1.74
XCYXKTCTVRGDX (HELM PEPTIDE1{[O=C(O)CN(CCN(CC(=O)O)CC(=O)O)CCN(CC(=O)O)CC(=O)[*:2]].[dF].C.Y.[dW].K.T.C.T.V.R.G.D.[dF].[am]}$PEPTIDE1,PEPTIDE1,3:R3-8:R3$$$V2.0; SMILES CC(C)[C@H](NC(=O)[C@@H](NC(=O)[C@@H]1CSSC[C@H](NC(=O)[C@@H](Cc2ccccc2)NC(=O)CN(CCN(CCN(CC(=O)O)CC(=O)O)CC(=O)O)CC(=O)O)C(=O)N[C@@H](Cc2ccc(O)cc2)C(=O)N[C@H](Cc2c[nH]c3ccccc23)C(=O)N[C@@H](CCCCN)C(=O)N[C@@H]([C@@H](C)O)C(=O)N1)[C@@H](C)O)C(=O)N[C@@H](CCCNC(=N)N)C(=O)NCC(=O)N[C@@H](CC(=O)O)C(=O)N[C@H](Cc1ccccc1)C(N)=O) [DTPA-DPhe-Cyclo(Cys-Tyr-DTrp-Lys-Thr-Cys)-Thr-Val-Arg-Gly-Asp-DPhe-NH2] | 0.945
{Cypate′}-[dF]CY[dW]KTCTVRGD-NH2 (disulfide 2-7) [Cypate-DPhe-Cyclo(Cys-Tyr-DTrp-Lys-Thr-Cys)-Thr-Val-Arg-Gly-Asp-NH2] | 4.42
H-RGDSPK(Cypate)-NH2 [H-Arg-Gly-Asp-Ser-Pro-Lys(Cypate)-NH2] | 1
{DOTA}-GRDSPK-OH (also called DOTA-GRD) [DOTA-Gly-Arg-Asp-Ser-Pro-Lys-OH] | 350
{DTPA}-GRDSPK-OH [DTPA-Gly-Arg-Asp-Ser-Pro-Lys-OH] | 0.849
{DOTA}-RGDSPK(Cypate)-NH2 (SMILES CC1(C)C(/C=C/C=C/C=C/C=C2/N(CCC(=O)NCCCC[C@H](NC(=O)[C@@H]3CCCN3C(=O)[C@H](CO)NC(=O)[C@H](CC(=O)O)NC(=O)CNC(=O)[C@H](CCCNC(=N)N)NC(=O)CN3CCN(CC(=O)O)CCN(CC(=O)O)CCN(CC(=O)O)CC3)C(N)=O)c3ccc4ccccc4c3C2(C)C)=[N+](CCC(=O)O)c2ccc3ccccc3c21) [DOTA-Arg-Gly-Asp-Ser-Pro-Lys(Cypate)-NH2] | 0.722
{Cypate(3)}-GRDSPK-OH [Cypate(3)-Gly-Arg-Asp-Ser-Pro-Lys-OH] | 2670
{Cypate(2)}-GRDSPK-OH [Cypate(2)-Gly-Arg-Asp-Ser-Pro-Lys-OH] | 266
{DTPA}-[dF]CY[dW]KTCTVRGD-NH2 (disulfide 2-7) [DTPA-DPhe-Cyclo(Cys-Tyr-DTrp-Lys-Thr-Cys)-Thr-Val-Arg-Gly-Asp-NH2] | 1.11
Cypate-RGDS-NH2 (also: cypate also carries one D-glucosamine) [Cypate(Arg-Gly-Asp-Ser-NH2)1-(D-Glucosamine)] | 1.94
{Cypate′}-VRGD[dF]CY[dW]KTCT-OH (disulfide 6-11) [Cypate-Val-Arg-Gly-Asp-DPhe-Cyclo(Cys-Tyr-DTrp-Lys-Thr-Cys)-Thr-OH] | 325
XVKRGD (HELM PEPTIDE1{[dF].V.K.R.G.D}$PEPTIDE1,PEPTIDE1,1:R1-6:R2$$$V2.0; SMILES CC(C)[C@@H]1NC(=O)[C@@H](Cc2ccccc2)NC(=O)[C@H](CC(=O)O)NC(=O)CNC(=O)[C@H](CCCNC(=N)N)NC(=O)[C@H](CCCCN)NC1=O) [Cyclo(DPhe-Val-Lys-Arg-Gly-Asp)-OH] | 1.89

The remaining lines, values ahead:

IC50 [µM] | Binder
0.0656 | {Cypate′}-[βAla]RGD[Ahx]RGD[Ahx]RGDSPK-OH [Cypate-BAla-Arg-Gly-Asp-EAhx-Arg-Gly-Asp-EAhx-Arg-Gly-Asp-Ser-Pro-Lys-OH]
0.411 | H-HDRGDCFK-OH [H-His-Asp-Arg-Gly-Asp-Cys-Phe-Lys-OH]
0.353 | {DTPA}-GRGDSPK-OH [DTPA-Gly-Arg-Gly-Asp-Ser-Pro-Lys-OH]
0.329 | H-[βAla]DCRGDC(Et)FV-OH (SMILES CCSC[C@H](NC(=O)[C@H](CC(=O)O)NC(=O)CNC(=O)[C@H](CCCNC(=N)N)NC(=O)[C@H](CS)NC(=O)[C@H](CC(=O)O)NC(=O)CCN)C(=O)N[C@@H](Cc1ccccc1)C(=O)N[C@H](C(=O)O)C(C)C) [H-B-Ala-Asp-Cys-Arg-Gly-Asp-Cys(Et)-Phe-Val-OH]
0.357 | XCYXKTCTVRGDX (HELM PEPTIDE1{[dF].C.Y.[dW].K.T.C.T.V.R.G.D.[dF].[am]}$PEPTIDE1,PEPTIDE1,2:R3-7:R3$$$V2.0; SMILES CC(C)[C@H](NC(=O)[C@@H](NC(=O)[C@@H]1CSSC[C@H](NC(=O)[C@H](N)Cc2ccccc2)C(=O)N[C@@H](Cc2ccc(O)cc2)C(=O)N[C@H](Cc2c[nH]c3ccccc23)C(=O)N[C@@H](CCCCN)C(=O)N[C@@H]([C@@H](C)O)C(=O)N1)[C@@H](C)O)C(=O)N[C@@H](CCCNC(=N)N)C(=O)NCC(=O)N[C@@H](CC(=O)O)C(=O)N[C@H](Cc1ccccc1)C(N)=O) [H-DPhe-Cyclo(Cys-Tyr-DTrp-Lys-Thr-Cys)-Thr-Val-Arg-Gly-Asp-DPhe-NH2]
0.722 | XCYXKTCTVRGD (HELM PEPTIDE1{[dF].C.Y.[dW].K.T.C.T.V.R.G.D.[am]}$PEPTIDE1,PEPTIDE1,2:R3-7:R3$$$V2.0; SMILES CC(C)[C@H](NC(=O)[C@@H](NC(=O)[C@@H]1CSSC[C@H](NC(=O)[C@H](N)Cc2ccccc2)C(=O)N[C@@H](Cc2ccc(O)cc2)C(=O)N[C@H](Cc2c[nH]c3ccccc23)C(=O)N[C@@H](CCCCN)C(=O)N[C@@H]([C@@H](C)O)C(=O)N1)[C@@H](C)O)C(=O)N[C@@H](CCCNC(=N)N)C(=O)NCC(=O)N[C@@H](CC(=O)O)C(N)=O) [H-DPhe-Cyclo(Cys-Tyr-DTrp-Lys-Thr-Cys)-Thr-Val-Arg-Gly-Asp-NH2]
0.712 | {DTPA}-HDC(Et)RGDC(Et)FK-OH (SMILES CCSC[C@H](NC(=O)[C@H](CC(=O)O)NC(=O)CNC(=O)[C@H](CCCNC(=N)N)NC(=O)[C@H](CSCC)NC(=O)[C@H](CC(=O)O)NC(=O)[C@H](Cc1c[nH]cn1)NC(=O)CN(CCN(CCN(CC(=O)O)CC(=O)O)CC(=O)O)CC(=O)O)C(=O)N[C@@H](Cc1ccccc1)C(=O)N[C@@H](CCCCN)C(=O)O) [DTPA-His-Asp-Cys(Et)-Arg-Gly-Asp-Cys(Et)-Phe-Lys-OH]
0.275 | CRGDSC-NH2 (disulfide 1-6; not fully specified (N-terminus); printed as Cypate-[Cyclo(Cys-Arg-Gly-Asp-Ser-Cys)-NH2]1-(D-Glucosamine); also: D-glucosamine attached to cypate) [Cypate-[Cyclo(Cys-Arg-Gly-Asp-Ser-Cys)-NH2]1-(D-Glucosamine)]
0.584 | VRGDXCYXKTCT (HELM PEPTIDE1{[O=C(O)CN(CCN(CC(=O)O)CC(=O)O)CCN(CC(=O)O)CC(=O)[*:2]].V.R.G.D.[dF].C.Y.[dW].K.T.C.T.[am]}$PEPTIDE1,PEPTIDE1,7:R3-12:R3$$$V2.0; SMILES CC(C)[C@H](NC(=O)CN(CCN(CCN(CC(=O)O)CC(=O)O)CC(=O)O)CC(=O)O)C(=O)N[C@@H](CCCNC(=N)N)C(=O)NCC(=O)N[C@@H](CC(=O)O)C(=O)N[C@H](Cc1ccccc1)C(=O)N[C@H]1CSSC[C@@H](C(=O)N[C@H](C(N)=O)[C@@H](C)O)NC(=O)[C@H]([C@@H](C)O)NC(=O)[C@H](CCCCN)NC(=O)[C@@H](Cc2c[nH]c3ccccc23)NC(=O)[C@H](Cc2ccc(O)cc2)NC1=O) [DTPA-Val-Arg-Gly-Asp-DPhe-Cyclo(Cys-Tyr-DTrp-Lys-Thr-Cys)-Thr-NH2]
0.000977 | {Cypate′}-[βAla]CRGDC[dF]V-NH2 (disulfide 2-6) [Cypate-BAla-Cyclo(Cys-Arg-Gly-Asp-Cys)-DPhe-Val-NH2]
0.694 | {DOTA}-RGDSPK-OH [DOTA-Arg-Gly-Asp-Ser-Pro-Lys-OH]
